Data taken from PMC8217500.

What was measured:
[1] = target: Fc-tagged SARS-CoV-2 spike receptor-binding domain (RBD) (SARS-CoV-2) (UniProt P0DTC2); test: BLI; Fc-tagged RBD (20 ug/ml) loaded on anti-hIgG Fc Capture (AHC) biosensors, Fab in solution; room temperature; 1x PBS pH 7.4, 0.01% BSA, 0.002% Tween 20; 1:1 binding model
[2] = target: Fc-tagged SARS-CoV-2 receptor-binding domain (RBD), wild type (SARS-CoV-2) (UniProt P0DTC2); test: BLI; Fc-tagged RBD (20 ug/ml) loaded on anti-hIgG Fc Capture (AHC) biosensors, Fab in solution at four to five concentrations; Octet Red96e, room temperature, 1x kinetics buffer (1x PBS pH 7.4, 0.01% w/v BSA, 0.002% v/v Tween 20); 1:1 binding model
[3] = target: Fc-tagged SARS-CoV-2 RBD (SARS-CoV-2) (UniProt P0DTC2); test: BLI; Octet Red96e, room temperature; Fc-tagged RBD (20 μg/ml) loaded on anti-hIgG Fc Capture (AHC) biosensors, Fab in solution; 1× kinetics buffer (1× PBS pH 7.4, 0.01% BSA, 0.002% Tween 20); 60 s association, 60 s dissociation; 1:1 binding model

## CC12.3 Fab, F58 (wild type)
[1]
  Kd: 14 nM

## CC12.3 Fab, wild type
[2]
  Kd: 14 nM

## COV107-23 Fab, Y58 variant (heavy chain F58Y)
[1]
  Kd: 362 nM

## COV107-23 paired with the light chain of COVD21-C8 (Fab)
[3]
  Kd: > 1000 nM

## COVD21-C8 heavy chain paired with the light chain of COV107-23 (Fab)
[3]
  Kd: > 1000 nM
